{
  "source": "patent US20110097715",
  "about": "“METHOD FOR PURIFYING OR DETECTING A TARGET PROTEIN” (LFB - BIOTECHNOLOGIES, published 2011)",
  "key": {"[1]": {"biological_target": "rabbit plasma-derived factor VII (Oryctolagus cuniculus, UniProt P98139 P98139:40-444)", "sequence (P98139 40-444, one chain of several)": "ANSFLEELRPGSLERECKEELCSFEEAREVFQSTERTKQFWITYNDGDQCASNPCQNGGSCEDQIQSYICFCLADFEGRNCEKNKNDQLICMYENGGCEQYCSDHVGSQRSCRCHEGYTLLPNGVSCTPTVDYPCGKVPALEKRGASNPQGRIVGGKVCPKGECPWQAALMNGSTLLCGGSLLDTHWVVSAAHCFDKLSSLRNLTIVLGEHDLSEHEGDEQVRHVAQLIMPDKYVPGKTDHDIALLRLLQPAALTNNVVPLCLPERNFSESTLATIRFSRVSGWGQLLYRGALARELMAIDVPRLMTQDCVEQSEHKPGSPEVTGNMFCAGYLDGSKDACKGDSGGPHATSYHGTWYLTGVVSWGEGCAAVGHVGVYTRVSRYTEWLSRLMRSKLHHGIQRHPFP", "test": "SPR; complete absence of binding at 50-400 nM; same buffer (CaCl2 2 mM)", "details": "tags: American Diagnostica; label: 3'-biotin", "text": "(§1) This aptamer is modified at the 3′-end thereof by grafting a biotin. Nucleotide bases in bold (SEQ no 1) are 2′O-methylated, which makes it possible to stabilize the aptamer by making it more resistant to nucleases. The aptamer was then immobilized onto an avidin-containing SA chip (Biacore GE). The aptamer was thus immobilized in an oriented manner through the 3′-end thereof with an immobilization rate of 2700 RU (where 1 RU does approximately correspond to 1 pg of immobilized product per mm²).\nRabbit plasma-derived factor VII (American Diagnostica) was diluted in the same buffer as in Example 1 at concentration levels of 50, 100 200, 400 nM, thereafter was injected under the same conditions as in Example 1 into the same chip containing the immobilized aptamer."}, "[2]": {"biological_target": "human plasma-derived factor VII (HP FVII) (Homo sapiens, UniProt P08709 P08709:61-466)", "sequence (P08709 61-466, one chain of several)": "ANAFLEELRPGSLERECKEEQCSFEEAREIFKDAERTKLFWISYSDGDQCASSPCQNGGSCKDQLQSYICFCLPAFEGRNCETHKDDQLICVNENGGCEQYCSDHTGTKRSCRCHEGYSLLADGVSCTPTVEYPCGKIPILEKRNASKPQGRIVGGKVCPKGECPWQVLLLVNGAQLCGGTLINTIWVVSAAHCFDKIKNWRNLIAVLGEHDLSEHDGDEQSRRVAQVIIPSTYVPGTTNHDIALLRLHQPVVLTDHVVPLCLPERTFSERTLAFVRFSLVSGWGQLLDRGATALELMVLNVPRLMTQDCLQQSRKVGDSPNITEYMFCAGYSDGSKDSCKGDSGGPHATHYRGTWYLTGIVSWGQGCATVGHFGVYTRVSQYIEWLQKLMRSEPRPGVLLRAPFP", "test": "SPR; Hepes 20 mM pH 8, NaCl 50 mM, CaCl2 2 mM, BSA 0.01%; aptamer immobilized via 3'-biotin on SA chip; allosteric binding model; FVII 50-400 nM", "details": "tags: plasma-derived, purity 99%; label: 3'-biotin", "text": "as §1\nSome purified, human plasma-derived factor VII (HP FVII, purity: 99%) was diluted in run buffer (Hepes 20 mM pH=8, NaCl 50 mM, CaCl₂ 2 mM and BSA 0.01%) so as to obtain four samples with human plasma-derived factor VII concentration levels of 50, 100, 200 and 400 nM. Each sample was injected sequentially into the same immobilized aptamer-containing chip through a biotin-streptavidin interaction. Controls are obtained by injecting blanks which only contained the run buffer. All injections are performed at a flow rate of 20 μl/min for 120 sec, after injection of the run buffer into the chip at the same flow rate for 240 sec. […] A binding to the immobilized aptamer generates a signal increase expressed in resonance unit (RU) recorded by the device (FIG. 1). […] The modelling of the recorded interactions was made by means of the Biaevaluation software (GE)."}},
  "data": [
    {"binder": "anti-human FVII aptamer (SEQ no 1) (ssRNA, 2'-OMe at bases shown in bold in the patent (positions not recoverable from text); 3'-biotin) RNA: GGGAGAGAGGAAGAGGGAUGGGAGCCUAUGUAACAGAUGCAGAUCCCUAGUCGUCCCAACACCAUAAC", "values": [
      {"measurement": "binding result", "setting": "[1]", "result": "no binding"},
      {"measurement": "Kd", "setting": "[2]", "result": 1400, "unit": "nM"}
    ]}
  ]
}
